{"source": "patent US10398755", "key": {"[1]": {"target": "Pro-MMP-9 (recombinant) (Mus musculus (Mouse)) (UniProt P41245)", "assay": "cell-based or functional assay"}, "[2]": {"target": "Pro-MMP-9 (recombinant) (Mus musculus (Mouse)) (UniProt P41245)", "assay": "CLU-His pull-down with anti-His tag antibody beads, gelatin zymography, densitometry; reference: MMP-9 and MMP-9-ΔC"}}, "data": [{"substance": "mouse CLU with C-terminal (His)6 (CLU-His), recombinant secreted clusterin (from UniProt Q06890 22-448)", "values": [{"measurement": "inhibition of MMP-9 activity; FRET peptide substrate, average of three independent experiments, CLU 50 µg/ml", "setting": "[1]", "result": 35, "unit": "%"}, {"measurement": "inhibition of MMP-9 activity; FRET peptide substrate, pro-MMP-9 with APMA, 3 h, CLU 50 µg/ml (0.63 µM)", "setting": "[1]", "result": 28, "unit": "%"}, {"measurement": "fold stronger affinity for CLU than the other forms of MMP-9 (band densities, Image J)", "setting": "[2]", "result": "> 10", "unit": "times"}]}]}
